For test [1], the target named is human insulin receptor extracellular domain (HIR ECD) (human) (UniProt P06213). Nature of the test: ELISA, HIR ECD plated (HIR receptor assay).
For test [2] the target is unchanged. Nature of the test: ELISA, HIR ECD plated; against HIR Ab alone.
Test [3] has the same target. Nature of the test: ELISA, HIR ECD plated, biotinylated goat anti-human IgG detection. For orientation: ELISA stands for enzyme-linked immunosorbent assay.

Consider “GUSB-HIR Ab fusion protein (GUSB fused to the amino terminus of the HIR Ab heavy chain) (from UniProt P08236 23-633) (antibody)”, for which the EC50 in test [1] stood at 4.8 nM. The substance further returned a reduction in receptor binding affinity in test [2] of 95%. “HIR Ab-GUSB fusion protein (GUSB fused to the carboxyl terminus of the HIR Ab heavy chain) (from UniProt P08236 23-633) (antibody)” returned an EC50 in test [3] of 0.81 nM.

What is called EC50 is the midpoint of the concentration-response curve. Lower therefore signals a more potent agent.

The values above are taken from patent publication US20240252667A1.
